Reference: patent EP4089108A1 (Cytoki Pharma ApS, dated 2022)

Molecular target: T1, human IL-22 receptor (human IL-22Ra and human IL-10Rb) expressed on BHK reporter cells (human, UniProt Q8N6P7 16-574; Q08334 20-325)
T1 sequence (looked up) 1: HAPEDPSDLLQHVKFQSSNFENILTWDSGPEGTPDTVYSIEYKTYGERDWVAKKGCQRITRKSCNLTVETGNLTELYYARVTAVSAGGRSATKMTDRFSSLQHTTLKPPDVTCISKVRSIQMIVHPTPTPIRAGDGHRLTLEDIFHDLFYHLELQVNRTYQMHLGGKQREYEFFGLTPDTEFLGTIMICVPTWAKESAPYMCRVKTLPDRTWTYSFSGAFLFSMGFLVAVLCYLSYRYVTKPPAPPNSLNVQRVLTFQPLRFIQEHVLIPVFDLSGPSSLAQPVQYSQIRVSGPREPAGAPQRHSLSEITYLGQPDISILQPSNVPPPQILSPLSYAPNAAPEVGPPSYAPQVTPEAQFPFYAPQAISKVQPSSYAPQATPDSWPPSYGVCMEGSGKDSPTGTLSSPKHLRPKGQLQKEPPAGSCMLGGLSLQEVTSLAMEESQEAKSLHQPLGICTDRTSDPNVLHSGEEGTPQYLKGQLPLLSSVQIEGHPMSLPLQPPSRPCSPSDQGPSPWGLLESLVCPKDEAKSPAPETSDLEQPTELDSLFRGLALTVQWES
T1 sequence (looked up) 2: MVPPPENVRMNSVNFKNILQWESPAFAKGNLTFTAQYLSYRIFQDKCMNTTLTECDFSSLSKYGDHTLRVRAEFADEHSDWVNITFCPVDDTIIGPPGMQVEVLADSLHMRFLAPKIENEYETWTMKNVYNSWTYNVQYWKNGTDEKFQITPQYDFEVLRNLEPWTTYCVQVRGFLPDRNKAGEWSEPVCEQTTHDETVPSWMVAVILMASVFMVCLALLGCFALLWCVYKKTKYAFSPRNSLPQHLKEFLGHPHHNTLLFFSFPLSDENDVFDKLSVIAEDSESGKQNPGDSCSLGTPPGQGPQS
Assay: cell-based or functional assay

B1: native mature human IL-22 (ligand)
chain: APISSHCRLDKSNFQQPYITNRTFMLAKEASLADNNTDVRLIGEKLFHGVSMSERCYLMKQVLNFTLEEVLFPQSDRFQPYMQEVVPFLARLSNRLSTCHIEGDDLHIQRNVQKLKDTVKKLGESGEIKAIGELDLLFMSLRNACI
With B1 the “EC50, BHK cell reporter gene assay (luciferase with STAT3-induced promoter)” value was 0.07 nM.

B2: Derivative 1 (ligand)
chain: GPGCPISSHCRLDKSNFQQPYITNRTFMLAKEASLADNNTDVRLIGEKLFHGVSMSERCYLMKQVLNFTLEEVLFPQSDRFQPYMQEVVPFLARLSNRLSTCHIEGDDLHIQRNVQKLKDTVKKLGESGEIKAIGELDLLFMSLRNACI
modifications: C16 monoacid covalently attached through linker γGlu-OEG-OEG-εLys-αAc to Cys at position 1 of hIL-22 numbering (attachment site 1C; position 4 of SEQ ID NO. 20)
With B2 the “EC50, BHK cell reporter gene assay (luciferase with STAT3-induced promoter)” value was 0.06 nM.
